Results on 5 molecules are retold here after patent US20250042991A1 (University of Texas, published 2025).

Experiment [1] concerns the target T1, human leptin (human, UniProt P41159 22-167).
T1 construct: Bought recombinant protein coated on ELISA plates; also called Leptin protein; LEPTIN antigen
The experiment can be described thus: ELISA titration on coated leptin, 4 parameter fit. As for the experimental part: ELISA titration was used to determine the binding affinity of a panel of monoclonal antibodies to LEPTIN antigen. Binding constants (KD and/or EC 50) of a panel of monoclonal antibodies were estimated using the 4 parameter curve fitting with Prism GraphPad program. For Biacore analysis, all experiments were performed at 25° C. at a flow rate of 45 μl/min. An anti-human IgG Fc antibody (from ThermoFisher, at 50 μg/ml each in acetate buffer, pH 5.0) was immobilized onto a carboxymethyl dextran sensorchip (CM5) using amine coupling procedures based on instruction from the manufacturer. Purified rabbit/human chimeric antibody to be tested was diluted at a concentration of 5 μg/ml in 0.5% P20, HBS-EP buffer and injected on FC2 to reach 500 to 1000 RU. FC1 was used as the reference cell. Specific signals correspond to the difference of signals obtained on FC2 versus FC1. The analyte (recombinant human LEPTIN, apparent molecular weight 16 kDa on SDS-PAGE gel) was injected during 90 sec at series of concentration dilutions (100, 50, 25, 12.5, 6.25, and 3.13, 1.56 nM) in 0.5% P20, HBS-EP buffer. These concentrations were prepared from stock solution in 0.5% P20, HBS-EP. The dissociation phase of the analyte was monitored over a 30 minutes period. Running buffer was also injected under the same conditions as a double reference. After each running cycle, both flow cells were regenerated by injecting 20 to 45 μl of Glycine-HCl buffer pH 1.5. Binding KD on LEPTIN was calculated by koff/kₒₙ kinetic rate for each LEPTIN monoclonal antibodies (Table 3).
On the technique in general: In an ELISA, binding on a coated surface is turned into a signal by an enzyme label.

The target of experiment [2] is T1, human leptin. The experiment can be described thus: ELISA, human leptin coated on plate, 1:20 diluted culture supernatant. As for the experimental part:
Binding of LEPTIN by monoclonal antibodies was first screened by ELISA using supernatants collected from the B cell cultures. Human or mouse LEPTIN protein (Sino Biologicals) was coated on a 96-well high binding plate over night at 4° C. in PBS. B cell culture supernatants (5 μl medium and 95 μl of PBS) were added at for binding to LEPTIN antigen coated on the plate. Bound antibody was detected using a secondary antibody against rabbit IgG conjugated with HRP and TMB substrate.

T1 sequence (P41159 22-167 limits assumed): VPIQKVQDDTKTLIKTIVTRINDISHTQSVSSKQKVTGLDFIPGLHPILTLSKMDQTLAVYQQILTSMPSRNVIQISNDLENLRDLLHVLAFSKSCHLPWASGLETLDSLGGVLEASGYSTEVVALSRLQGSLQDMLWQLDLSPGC

B1: hLept-1 (antibody, V domains shown)
VH: QVQLQQLGPGLVKPSETLSLTCNVSGGSVSRGSHYWTWIRQPPGKGLEWIGYIHTDGSTNFNPSLKSRVTMSLDRSRNQFSLTLSSVTATDTAVYYCAREPGGALNFWGQGTLVTVSS
VL: not shown
notes: From a human scFv phage library, expressed as full human IgG in HEK293 cells
With B1, in the experiment with human leptin [1], the EC50 was 1 to 500 nM. The “absorbance at 450 nM” value in the experiment with human leptin [2] was determined as 0.071 absorbance at 450 nM.

B2: hLept-3 (antibody, V domains shown)
VH: QVQLVQSGAEVKKPGSSVKVSCKASGGTFSSYAISWVRQAPGQGLEWMGGIIPIFGTANYAQKFQGRVTITADESTSTAYMELSSLRSEDTAVYYCARSQVPSSYYYGMDVWGQGTMVTVSS
VL: QSVLTQPPSVSGAPGQRVTISCTGGNSNIGAGYHVHWYQQLPGAAPKLLIYGDTNRPSGVPDRFSGSQSGTSASLAITGLQADDEADYYCQSYDRSRGGWFFGGGTQLTVL
notes: Expressed as full human IgG in HEK293 cells; also called hLetp-3
On to B2, for which the EC50 with human leptin [1] was in the range of 1 to 500 nM. The “absorbance at 450 nM” value in the experiment with human leptin [2] stood at 0.19 absorbance at 450 nM.

B3: hLept-5 (antibody, V domains shown)
VH: QVKLVEWSLSVVQPGRSLRLSCAASGFTFSSYAMHWVRQAPGKGLEWVAVISYDGSNKYYADSVKGRFTISRDNSKNTLYLQMNSLRAEDTAVYYCARGREYYYYMDVWGKGTTVSVSS
VL: QSVLTQPPSVSVAPGKTARITCGGYNIARKSVHWYQQKPGQAPVLVMYNDNDRPSGIPERFSGSNSGNTATLTISRVEAGDEADYYCQVWDNSDYVFGTGTKVTVL
notes: Expressed as full human IgG in HEK293 cells
For B3, in the experiment with human leptin [1], the EC50 was in the range of 1 to 500 nM. The “absorbance at 450 nM” value in the experiment with human leptin [2] is 0.739 absorbance at 450 nM.

B4: hLept-2 (antibody, V domains shown)
VH: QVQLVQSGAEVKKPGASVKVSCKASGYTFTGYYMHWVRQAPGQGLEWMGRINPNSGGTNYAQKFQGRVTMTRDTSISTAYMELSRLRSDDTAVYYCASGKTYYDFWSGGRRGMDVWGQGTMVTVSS
VL: DIQLTQSPSSLSASVGDRVTITCRAGQSVSRYLNWFQQKPGKAPKLLIYTSSNLQSGVPSRFSASGSGTDFTLTISSLQPEDFATYYCQQTYSTPWTFGQGTKLEIK
notes: as for B3
In the experiment with human leptin [1], B4 displayed an EC50 of 1 to 500 nM. Also, in the experiment with human leptin [2], the “absorbance at 450 nM” value turned out to be 2.57 absorbance at 450 nM.

B5: hLept-6 (antibody, V domains shown)
VH: QVQLMQSGAEVKKPGASVKVSCKASGYTFTSYYMHWVRQAPGQGLEWMGIINPSGGSTSYAQKFQGRVTMTRDTSTSTVYMELSSLRSEDTAVYYCARGFGYGGKALDYWGQGTTVTVSS
VL: DIQMTQSPPTLSASVGDRVTITCRASQNINSRLAWYQQKPGRAPKLLIYKASTLESGVPSRFSGSGSGTEFTLTISSLQPDDFATYYCQQFDKYSITFGGGTKMEIK
notes: as for B3
In the experiment with human leptin [1], B5 returned an EC50 of 1 to 500 nM. In addition, the “absorbance at 450 nM” value with human leptin [2] was 0.663 absorbance at 450 nM.

One may read the EC50 as the concentration needed to bring the measured effect to its halfway point. Low readings indicate a more potent agent, high ones a less potent agent.
